Our source for the MFI (mean fluorescence intensity), EC50 and IC50 values is patent US20230159632A1 (SHANGHAI JUNSHI BIOSCIENCES, published 2023).

Test [1] has as its target T1, human IL-17RA on stable IL-17RA 293F cell lines (human) (UniProt Q96F46).
T1 sequence (looked up): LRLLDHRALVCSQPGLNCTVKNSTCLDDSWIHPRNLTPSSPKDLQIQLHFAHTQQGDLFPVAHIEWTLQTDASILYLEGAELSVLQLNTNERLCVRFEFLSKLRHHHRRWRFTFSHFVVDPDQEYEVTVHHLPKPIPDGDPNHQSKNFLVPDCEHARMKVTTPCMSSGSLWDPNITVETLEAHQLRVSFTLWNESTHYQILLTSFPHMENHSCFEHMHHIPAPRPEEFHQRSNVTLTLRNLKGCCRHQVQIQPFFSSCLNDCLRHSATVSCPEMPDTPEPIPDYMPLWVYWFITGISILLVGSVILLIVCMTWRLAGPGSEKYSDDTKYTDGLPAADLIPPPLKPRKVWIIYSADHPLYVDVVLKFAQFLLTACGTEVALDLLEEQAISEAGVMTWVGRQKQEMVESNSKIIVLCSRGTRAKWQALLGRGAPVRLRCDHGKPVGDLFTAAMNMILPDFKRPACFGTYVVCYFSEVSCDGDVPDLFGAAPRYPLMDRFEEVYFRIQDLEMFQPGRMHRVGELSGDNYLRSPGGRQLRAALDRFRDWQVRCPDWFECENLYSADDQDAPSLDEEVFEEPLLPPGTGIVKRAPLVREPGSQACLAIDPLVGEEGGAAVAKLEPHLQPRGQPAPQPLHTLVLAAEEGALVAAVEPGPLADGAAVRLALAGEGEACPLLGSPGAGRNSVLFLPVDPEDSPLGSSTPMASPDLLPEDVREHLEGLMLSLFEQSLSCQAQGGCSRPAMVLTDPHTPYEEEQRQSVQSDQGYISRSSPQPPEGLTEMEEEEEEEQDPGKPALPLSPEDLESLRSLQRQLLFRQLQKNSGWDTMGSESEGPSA
Briefly: FACS, 3 µg/mL IL-17A-mFc on stable IL-17RA 293F cells, anti-mouse IgG detection; control group (1% BSA, no IL-17A-mFc) gave 308.

Test [2] deals with T2, recombinant human IL-17A-mFc protein (human, UniProt Q16552 24-155, Biotinylated before the blocking assays of Examples 9 and 12 (sites not given); disulfide-linked dimer through IL-17A and the Fc.).
T2 construct: also called recombinant fusion protein IL-17A-mFc
T2 sequence: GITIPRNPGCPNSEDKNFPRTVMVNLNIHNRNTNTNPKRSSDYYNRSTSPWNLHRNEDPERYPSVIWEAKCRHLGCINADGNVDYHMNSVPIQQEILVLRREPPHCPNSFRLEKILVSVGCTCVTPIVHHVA
Kind of test: ELISA, human IL-17A-mFc (0.5 µg/mL) coated, biotinylated anti-IgG4 detection. Here is the method:
(§1) The binding specificity of the chimeric antibodies to human IL-17A was determined by conventional ELISA. Namely, 0.5 μg/mL of human IL-17A-mFc was immobilized on a 96-well plate and incubated for 60-90 minutes at 37° C. The solution in wells was then discarded, and the wells were washed 3 times with washing buffer, and blocked for 60 minutes with PBS containing 2% BSA. The plate was washed 3 times with washing buffer, and added with diluted chimeric antibodies at different concentrations. The antibodies were incubated at 37° C. for 60 minutes. The plate was then washed 3 times with washing buffer, and added with 10000-fold diluted biotinylated anti-IgG4 antibody. The system was incubated at 37° C. for 1 hour, washed three times with washing buffer, added with HRP-Strep 10000-fold diluted with washing buffer, and incubated at room temperature for 1 hour. After 3 washes with washing buffer, 100 μL of TMB substrate was added for color development. The system was incubated at room temperature for 30 minutes, and the reaction was terminated with 100 μL of 2 M hydrochloric acid solution. The absorbance at 450 nm was measured by a plate reader.
In general terms: An ELISA detects its analyte on a solid surface through an enzyme-linked reagent.

For test [3], the target named is T2, recombinant human IL-17A-mFc protein. Briefly: competitive FACS: blocks binding of biotinylated human IL-17A-mFc (3 µg/mL) to IL-17RA on 293F cells. Here is the method:
(§2) The blocking of binding of IL-17A to IL-17RA on cells was detected by a competitive cell-based flow cytometry (FACS) assay. Briefly, chimeric antibody dilutions of different concentrations (3-fold diluted from 10 μg/mL) were mixed with the pre-biotinylated human IL-17A-mFC (3 μg/mL) obtained in Example 1, and incubated at room temperature for 30 minutes. […] After 3 washes with PBS, 5 μg/mL of anti-mouse IgG was added and the system was incubated at room temperature for 30 minutes.

Test [4] shares this target. Kind of test: ELISA, human IL-17A-mFc coated (method of Example 8). Here is the method: as §1
The binding specificity of the humanized antibodies to human IL-17A was determined by conventional ELISA. The method and procedures are described in Example 8.

For test [5] the target is unchanged. Briefly: competitive FACS: blocks binding of biotinylated human IL-17A-mFc to IL-17RA on 293F cells. Here is the method:
as §2
The blocking of binding of IL-17A to IL-17RA on cells was detected by a competitive cell-based flow cytometry (FACS) assay. The method and procedures are described in Example 9.

Regarding “recombinant human IL-17A-mFc protein (from UniProt Q16552 24-155) (Fc fusion)”, the MFI (mean fluorescence intensity) in test [1] was 7700 MFI.

B1: chimeric antibody ch7 (antibody, V domains shown)
VH: QVQLKESGPGLVAPSQSLSITCTVSGFSLINYDIHWLRQPPGKGLEWLGVIWAGGRTHSDSALMSRLSISKDNSKSQVFLNVHSLRPEDTAIYYCAREGGDYYKYLDFWGQGTTLTVSS
VL: DVKMTQSPSSMYASLGERVTITCKASHDINSYLSWFQQKPGKSPKTLIYRANGLVDGVPSRFSGSGSGQDYSLTISSLEYEDMGVYYCLQYEMLPLTFGAGTKLELK
For the molecule B1, in test [2], the EC50 (commonly the concentration giving half of the maximal effect) was found to be 0.04 µg/mL. Also, in test [3], the IC50 – broadly, the point on the concentration scale where inhibition reaches its midpoint – was found to be 1.22 µg/mL.

B2: chimeric antibody ch1 (antibody, V domains shown)
VH: QIQLVQSGPELKKPGETVKISCKASGYIFTNYGMNWMKQAPGKGLKWMGWINDHTGEPTYADDFKGRFAFSLETSASTAYLQINNLKKEDTATYFCANYGFGYFDYWGQGTTLTVSS
VL: DVVMTQTPLSLPVSLGDQASISCRSSQSLVHSNGNSYLHWYLQKPGQSPKLLIYKVSNRFSGVPDRFSGSGSGTDFTLKISRVEAEDLGVYFCSQSTHVPYTFGGGTKLEIK
Regarding B2, the 50% effective concentration (EC50) in test [2] was 0.00662 µg/mL. For the same molecule, the IC50 in test [3] was 4.46 µg/mL.

B3: chimeric antibody ch4 (antibody, V domains shown)
VH: QIQLVQSGPELKKPGETVKISCKASGYIFTNYGMNWMKQAPGKGLKWMGWINDHTGEPTYADDFKGRFAFSLETSASTAYLQINNLKKEDTATYFCANYGFGYFDYWGQGTTLTVSS
VL: DVLMTQTPLSLPVSLGDQASISCRSSQSIVHSNGNTYLDWYLQKPGQSPKLLIYKVSNRFSGVPDRFSGSGSGTSFTLKISRVEAEDLGVYYCFQGSHFPTFGGGTKLEIK
B3: the EC50 in test [2] came to 0.0885 µg/mL.

B4: chimeric antibody ch2 (antibody, V domains shown)
VH: QIQLVQSGPELKKPGETVKISCKASGYIFTNYGMNWMKQAPGKGLKWMGWINDHTGEPTYADDFKGRFAFSLETSASTAYLQINNLKKEDTATYFCANYGFGYFDYWGQGTTLTVSS
VL: DVVVTQTPLSLPVSLGDQASISCRSGQSLVHSNGHTYFHWYLQKPGQSPKLLIYKVSNRFSGVPDRFSGSGSGTDFTLKISRVEAEDLGIYFCSQSTHVPYTFGGGTKLEIK
For the molecule B4, the EC50 in test [2] came to 0.00517 µg/mL. Also, in test [3], the IC50 came to 3.15 µg/mL.

B5: chimeric antibody ch16 (antibody, V domains shown)
VH: DVQLQESGPGLVKPSQSLSLTCTVTGYSITSDYAWSWIRQFPGNKLEWMAFISYSGPTSYNPSLKSRVSITRDTSKNQFFLQLKSVTTEDTATYYCARGGDGDSFDYWGQGTTLTVSS
VL: DVLMTQTPLSLPVSLGDQASISCRSSQSIVHSNGNTYLDWYLQKPGQSPKLLIYKVSNRFSGVPDRFSGSGSGTSFTLKISRVEAEDLGVYYCFQGSHFPTFGGGTKLEIK
Turning to B5, the EC50 in test [2] was found to be 0.0154 µg/mL. Further, the IC50 in test [3] amounted to 1.45 µg/mL.

B6: humanized antibody hu43 (antibody, human IgG4 S228P, kappa, V domains shown)
VH: QIQLVQSGAEVKKPGASVKISCKASGYIFTNYGMNWMRQAPGQGLEWMGWINDHTGEPTYADKFQGRVTFTLDTSASTAYMELSRLRSDDTAVYYCANYGFGYFDYWGQGTLVTVSS
VL: DVVMTQSPLSLPVTLGQPASISCRSSQSLVHSNGNSYLHWYLQKPGQSPQLLIYKVSNRFSGVPDRFSGSGSGTDFTLKISRVEAEDVGVYYCSQSTHVPYTFGQGTKLEIKR
As for B6, the EC50 in test [4] is 0.00864 µg/mL. For the same molecule, the IC50 in test [5] came out at 0.781 µg/mL.

B7: humanized antibody hu31 (antibody, human IgG4 S228P, kappa, V domains shown)
VH: QVQLVQSGAEVKKPGASVKVSCKASGYIFTNYGMNWMRQAPGQGLEWMGWINDHTGEPTYADKFQGRVTFTLDTSISTAYMELSRLRSDDTAVYYCANYGFGYFDYWGQGTLVTVSS
VL: DVVMTQSPLSLPVTLGQPASISCRSSQSLVHSNGNSYLHWYLQKPGQSPQLLIYKVSNRFSGVPDRFSGSGSGTDFTLKISRVEAEDVGVYYCSQSTHVPYTFGQGTKLEIKR
notes: Humanized from ch1
As to B7, the EC50 in test [4] amounted to 0.00813 µg/mL. Also, the IC50 in test [5] was 0.868 µg/mL.

B8: humanized antibody hu44 (antibody, human IgG4 S228P, kappa, V domains shown)
VH: QIQLVQSGAEVKKPGASVKISCKASGYIFTNYGMNWMRQAPGQGLEWMGWINDHTGEPTYADKFQGRVTFTLDTSASTAYMELSRLRSDDTAVYYCANYGFGYFDYWGQGTLVTVSS
VL: DVVMTQSPLSLPVTLGQPASISCRSSQSLVHSNGNSYLHWYLQKPGQSPQLLIYKVSNRFSGVPDRFSGSGSGTDFTLKISRVEAEDVGVYFCSQSTHVPYTFGQGTKLEIKR
Take B8: the EC50 in test [4] was found to be 0.00676 µg/mL. Moreover, in test [5], the IC50 amounted to 0.829 µg/mL.

B9: humanized antibody hu59 (antibody, human IgG4 S228P, kappa, V domains shown)
VH: QVQLQESGPGLVKPSETLSLTCTVTGYSISSDYAWSWIRQPPGKGLEWIGFISYSGPTSYNPSLKSRVTISRDTSKNQFSLKLSSVTAADTAVYYCARGGDGDSFDYWGQGTLVTVSS
VL: DVVMTQSPLSLPVTLGQPASISCRSSQSIVHSNGNTYLDWYLQKPGKSPKLLIYKVSNRFSGVPDRFSGSGSGTDFTLKISRVEAEDLGVYYCFQGSHFPTFGQGTKLEIKR
With B9, in test [4], the EC50 worked out at 0.0061 µg/mL. Besides, in test [5], the half-inhibitory concentration (IC50) is 0.467 µg/mL.

B10: humanized antibody hu250 (antibody, human IgG4 S228P, kappa, V domains shown)
VH: QVQLQESGPGLVKPSETLSLTCTVSGYSITSDYAWSWIRQPPGKGLEWIGFISYSGPTSYNPSLKSRVTISRDTSKNQFFLQLKSVTAADTAVYYCARGGDGDSFDYWGQGTTVTVSS
VL: DVVMTQTPLSLSVTPGQPASISCKSSQSIVHSNGNTYLDWYLQKPGQSPKLLIYKVSNRFSGVPDRFSGSGSGTDFTLKISRVEAEDVGVYYCFQGSHFPTFGGGTKVEIKR
Turning to B10, the EC50 in test [4] was determined as 0.00635 µg/mL. In addition, the IC50 in test [5] was 0.578 µg/mL.

B11: humanized antibody hu60 (antibody, human IgG4 S228P, kappa, V domains shown)
VH: QVQLQESGPGLVKPSETLSLTCTVTGYSISSDYAWSWIRQPPGKGLEWIGFISYSGPTSYNPSLKSRVTISRDTSKNQFSLKLSSVTAADTAVYYCARGGDGDSFDYWGQGTLVTVSS
VL: DVVMTQSPLSLPVTLGQPASISCRSSQSIVHSNGNTYLDWYLQKPGQSPKLLIYKVSNRFSGVPDRFSGSGSGTSFTLKISRVEAEDLGVYYCFQGSHFPTFGQGTKLEIKR
With B11, the EC50 in test [4] was found to be 0.00578 µg/mL. Further, the IC50 in test [5] came to 0.483 µg/mL.
